Experimental data as given in patent US12552837.
*1 amine or outer side, *2 acyl side, *3 side chain or, on linkers, in order; H or OH if unused. Bridges are numbered along the chain shown (N, C = ends). [ ]: non-standard residue; d: D form. The star is where a group is joined. DOTA = O=C(O)CN1CCN(CC(=O)O)CCN(CC(=O)*)CCN(CC(=O)O)CC1; 1Nal = N[C@@H](Cc1cccc2ccccc12)C(=O)O; TBMB = c1c(C[*:1])cc(C[*:3])cc1C[*:2]; Tle = CC(C)(C)[C@H](N)C(=O)O

Target: membrane type 1-matrix metalloproteinase (MT1-MMP), P50281
Assay: not stated at the place; fluorescence polarization with MT1-MMP hemopexin domain per Examples 7-8

Kd: 0.52 nM
B1: I-23 (peptide)
peptide: {DOTA}-AC[dA]NE[1Nal][dA]CEDFYD[Tle]C-NH2
modifications: linker 2-8-15 via TBMB
SMILES: C[C@H](NC(=O)CN1CCN(CC(=O)O)CCN(CC(=O)O)CCN(CC(=O)O)CC1)C(=O)N[C@H]1CSCc2cc3cc(c2)CSC[C@H](NC(=O)[C@@H](C)NC(=O)[C@H](Cc2cccc4ccccc24)NC(=O)[C@H](CCC(=O)O)NC(=O)[C@H](CC(N)=O)NC(=O)[C@@H](C)NC1=O)C(=O)N[C@@H](CCC(=O)O)C(=O)N[C@@H](CC(=O)O)C(=O)N[C@@H](Cc1ccccc1)C(=O)N[C@@H](Cc1ccc(O)cc1)C(=O)N[C@@H](CC(=O)O)C(=O)N[C@@H](C(C)(C)C)C(=O)N[C@H](C(N)=O)CSC3
